Results taken from publication PMC6735628.
pKd: −log10 of the molar value.

Key:
[1] = biological target: native LIC11711 (L. interrogans serovar Copenhageni (endogenous in strain M20)); experiment: western blot of cell extracts; L. interrogans M20 cells treated with proteinase K for 0, 1 and 3 h, extracts blotted and probed with antiserum against rLIC11711
E-cadherin = E-cadherin (UniProt P12830); experiment: ELISA; dose-response: 1 ug host component or BSA coated, increasing recombinant protein (0-20 uM); HRP anti-His MAb; KD by non-linear regression in GraphPad Prism 6
plasminogen (human) = experiment: ELISA; time course: 1 ug PLG coated, 1 ug recombinant protein for 5, 15, 30, 60 and 120 min; anti-His MAbs; percent of the 120 min value
[2] = biological target: recombinant protein LIC11711 (L. interrogans serovar Copenhageni (strain M20 genomic DNA)); experiment: non-reducing SDS-PAGE with western blot; purified recombinant proteins, non-reducing against reducing treatment (beta-mercaptoethanol and heating at 96 C); probed with anti-His MAbs or polyclonal antisera
vitronectin (human) = experiment: ELISA; vitronectin (250 ng/well) coated, 5 uM recombinant protein plus increasing heparin, 2 h at 37 C; HRP anti-His MAbs
[3] = biological target: complement component C9 (human) (UniProt P02748); experiment: ELISA; dose-response: 1 ug host component or BSA coated, increasing recombinant protein (0-20 uM); HRP anti-His MAb; KD by non-linear regression in GraphPad Prism 6
Chain of UniProt P02748 (P02748 22-559): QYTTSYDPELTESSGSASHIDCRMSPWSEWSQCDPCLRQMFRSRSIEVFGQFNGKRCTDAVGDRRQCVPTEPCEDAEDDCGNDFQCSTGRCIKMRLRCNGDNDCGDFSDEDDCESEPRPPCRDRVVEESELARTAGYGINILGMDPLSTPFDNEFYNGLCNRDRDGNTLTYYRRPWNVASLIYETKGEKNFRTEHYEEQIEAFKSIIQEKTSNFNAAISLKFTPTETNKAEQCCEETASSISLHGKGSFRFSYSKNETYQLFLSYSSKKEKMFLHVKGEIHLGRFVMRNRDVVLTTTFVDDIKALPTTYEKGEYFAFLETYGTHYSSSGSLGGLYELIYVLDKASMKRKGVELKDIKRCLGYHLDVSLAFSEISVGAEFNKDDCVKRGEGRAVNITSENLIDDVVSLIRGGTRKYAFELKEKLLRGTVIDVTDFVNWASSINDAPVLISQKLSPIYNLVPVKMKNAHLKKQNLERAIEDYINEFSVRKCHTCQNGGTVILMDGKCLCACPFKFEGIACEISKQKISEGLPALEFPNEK

[4] = biological target: complement component C8 (human) (UniProt P07357); experiment: as above
Chain of UniProt P07357 (P07357 31-584, chain 1 of 3): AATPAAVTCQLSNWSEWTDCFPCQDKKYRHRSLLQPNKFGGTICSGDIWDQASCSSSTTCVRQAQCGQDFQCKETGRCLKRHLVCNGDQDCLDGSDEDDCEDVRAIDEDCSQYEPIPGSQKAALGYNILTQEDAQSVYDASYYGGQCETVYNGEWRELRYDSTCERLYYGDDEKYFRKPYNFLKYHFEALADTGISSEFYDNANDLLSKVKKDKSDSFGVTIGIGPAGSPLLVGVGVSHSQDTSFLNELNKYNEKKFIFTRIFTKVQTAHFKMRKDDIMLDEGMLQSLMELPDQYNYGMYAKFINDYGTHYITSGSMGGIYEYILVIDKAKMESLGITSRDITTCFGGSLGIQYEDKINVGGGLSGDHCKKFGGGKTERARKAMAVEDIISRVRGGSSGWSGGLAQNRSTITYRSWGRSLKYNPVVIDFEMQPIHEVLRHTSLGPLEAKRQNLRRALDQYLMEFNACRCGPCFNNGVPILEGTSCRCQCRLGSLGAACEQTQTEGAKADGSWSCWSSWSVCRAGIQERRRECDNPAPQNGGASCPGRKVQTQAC
Chain of UniProt P07357 (P07358 55-591, chain 2 of 3, further chain): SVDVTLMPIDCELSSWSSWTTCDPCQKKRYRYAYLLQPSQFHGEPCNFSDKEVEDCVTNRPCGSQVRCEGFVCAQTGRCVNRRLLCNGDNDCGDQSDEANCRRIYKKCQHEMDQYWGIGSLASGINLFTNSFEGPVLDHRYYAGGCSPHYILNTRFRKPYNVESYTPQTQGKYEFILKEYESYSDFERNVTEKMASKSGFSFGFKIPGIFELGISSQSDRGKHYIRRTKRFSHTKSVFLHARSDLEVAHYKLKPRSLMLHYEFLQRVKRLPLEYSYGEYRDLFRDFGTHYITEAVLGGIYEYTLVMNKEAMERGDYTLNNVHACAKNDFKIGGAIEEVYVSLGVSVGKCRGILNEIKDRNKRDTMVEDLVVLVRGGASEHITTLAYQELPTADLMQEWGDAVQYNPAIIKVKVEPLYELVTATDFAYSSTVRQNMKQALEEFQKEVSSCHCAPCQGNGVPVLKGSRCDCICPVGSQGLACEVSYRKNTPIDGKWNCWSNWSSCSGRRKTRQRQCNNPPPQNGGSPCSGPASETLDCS
Chain of UniProt P07357 (P07360 21-202, chain 3 of 3, further chain): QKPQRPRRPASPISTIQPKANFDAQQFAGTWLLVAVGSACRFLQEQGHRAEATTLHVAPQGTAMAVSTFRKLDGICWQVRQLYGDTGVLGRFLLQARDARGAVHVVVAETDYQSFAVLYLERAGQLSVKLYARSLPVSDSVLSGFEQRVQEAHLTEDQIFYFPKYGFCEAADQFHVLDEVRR

[5] = biological target: complement component C7 (human) (UniProt P10643); experiment: as above
Chain of UniProt P10643 (P10643 23-843): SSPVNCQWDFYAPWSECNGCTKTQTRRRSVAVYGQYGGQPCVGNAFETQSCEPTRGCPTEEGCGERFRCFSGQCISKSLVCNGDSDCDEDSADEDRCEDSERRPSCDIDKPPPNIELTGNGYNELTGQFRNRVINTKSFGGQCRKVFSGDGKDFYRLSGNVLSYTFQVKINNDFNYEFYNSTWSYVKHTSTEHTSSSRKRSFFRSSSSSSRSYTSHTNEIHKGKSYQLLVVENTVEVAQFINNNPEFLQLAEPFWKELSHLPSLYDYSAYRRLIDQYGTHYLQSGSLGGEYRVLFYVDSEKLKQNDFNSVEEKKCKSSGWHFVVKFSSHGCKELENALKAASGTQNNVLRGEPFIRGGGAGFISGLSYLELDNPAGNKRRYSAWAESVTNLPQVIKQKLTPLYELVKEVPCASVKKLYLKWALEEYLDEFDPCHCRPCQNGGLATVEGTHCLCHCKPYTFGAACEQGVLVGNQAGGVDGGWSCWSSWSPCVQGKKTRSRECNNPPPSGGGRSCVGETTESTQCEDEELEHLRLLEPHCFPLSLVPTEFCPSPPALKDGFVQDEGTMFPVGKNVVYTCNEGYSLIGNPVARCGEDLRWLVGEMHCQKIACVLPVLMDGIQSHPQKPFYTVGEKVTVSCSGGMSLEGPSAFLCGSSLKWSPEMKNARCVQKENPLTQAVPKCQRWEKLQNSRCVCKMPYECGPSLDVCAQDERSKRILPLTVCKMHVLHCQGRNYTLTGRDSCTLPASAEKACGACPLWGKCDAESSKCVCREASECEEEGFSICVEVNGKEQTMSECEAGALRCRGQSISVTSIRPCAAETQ

Row | Substance | stoichiometry N [1] | pKd (E-cadherin) | percent of the maximal binding (2 h) reached at 5 min (plasminogen (human)) [%] | stoichiometry N [2] | percent reduction of binding with 10 ug/well heparin (vitronectin (human)) [%] | percent reduction of binding with 100 ug/well heparin (vitronectin (human)) [%] | pKd [3] | pKd [4] | pKd [5]
1 | native LIC11711 (natural protein) | 2 | – | – | – | – | – | – | – | –
2 | recombinant protein LIC11711 (natural protein) | – | 5.42 | 40 | 2 | 40 | 54 | – | – | –
3 | recombinant protein LIC12587 (natural protein) | – | – | – | – | 10 | 51 | 6.20 | 6.33 | 5.71
